The values below come from publication PMC6606567, “Molecular tuning of farnesoid X receptor partial agonism” (Nature Communications, 2019).

Data set [1] addresses farnesoid X receptor ligand binding domain (FXR-LBD; isoform 4; amino acids 244-472) (human). Put plainly: NMR titration; 1H/13C-HSQC of Leu-labeled NCoR and NCoA peptides (50 µM) with FXR-LBD (50 µM) and partial agonist 1 (250 µM); 298 K, 50 mM Tris pH 8.3, 500 mM NaCl, 2 mM TCEP; populations from signal intensities.
For data set [2] the target is unchanged. Description: NMR titration; 1H/13C-HSQC of Leu-labeled NCoR and NCoA peptides (50 µM) with FXR-LBD (50 µM) and ivermectin (250 µM); 298 K, 50 mM Tris pH 8.3, 500 mM NaCl, 2 mM TCEP; populations from signal intensities.
For data set [3] the target is unchanged. Put plainly: NMR titration; 1H/13C-HSQC of Leu-labeled NCoR and NCoA peptides (50 µM) with FXR-LBD (50 µM) and CDCA (250 µM); 298 K, 50 mM Tris pH 8.3, 500 mM NaCl, 2 mM TCEP; populations from signal intensities.
Data set [4] has the same target. Put plainly: NMR titration; HSQC of the quaternary mixture of FXR-LBD, antagonist guggulsterone, labeled co-activator (NCoA) and co-repressor (NCoR) peptides; protein:peptide:ligand 50:50:250 µM, 298 K.
For data set [5] the target is unchanged. Put plainly: NMR titration; 1H/13C-HSQC of Leu-labeled NCoR and NCoA peptides (50 µM) with FXR-LBD (50 µM) and fexaramine (250 µM); 298 K, 50 mM Tris pH 8.3, 500 mM NaCl, 2 mM TCEP; populations from signal intensities.
The target is the same in data set [6]. Put plainly: NMR titration; 1H/13C-HSQC of Leu-labeled NCoR and NCoA peptides (50 µM) with FXR-LBD (50 µM) and GW4064 (250 µM); 298 K, 50 mM Tris pH 8.3, 500 mM NaCl, 2 mM TCEP; populations from signal intensities.
Data set [7] concerns the molecule itself. Description: crystal structure; FXR244-472 (75 µM) incubated with 150 µM partial agonist 1 (DM175), concentrated to 375 µM, then 750 µM NCoA-2 740-752 peptide; hanging drop, 4 °C, 300 mM MgCl2, 100 mM Bis-Tris pH 7, 15-20% PEG 3350, micro seeding.

For the molecule “Nuclear receptor co-activator 2 peptide (NCoA-2 740-752)”, the free co-repressor/free co-activator ratio (part of free co-activator) was 70 in data set [1]; 75 in data set [2]; 13 in data set [3]; 85 in data set [4]; 23 in data set [5]; 14 in data set [6].
“nuclear receptor co-repressor 1 peptide (NCoR-1, residues 2256-2278)”: the free co-repressor/free co-activator ratio (part of free co-repressor) in data set [1] stood at 30; in data set [2], 25; in data set [3], 87; in data set [4] it was 15; in data set [5], 77; in data set [6], 86.

B1: farnesoid X receptor ligand binding domain (FXR-LBD; isoform 4; amino acids 244-472) (domain or fragment, human)
chain: ELTPDQQTLLHFIMDSYNKQRMPQEITNKILKEEFSAEENFLILTEMATNHVQVLVEFTKKLPGFQTLDHEDQIALLKGSAVEAMFLRSAEIFNKKLPSGHSDLLEERIRNSGISDEYITPMFSFYKSIGELKMTQEEYALLTAIVILSPDRQYIKDREAVEKLQEPLLDVLQKLCKIHQPENPQHFACLLGRLTELRTFNHHHAEMLMSWRVNDHKFTPLLCEIWDVQ
notes: numbers count on: isoform 4; also called FXR244-472; NR1H4; source: E. coli BL21(DE3) gold, purified (NiNTA, Tev cleavage, Superdex 200); not shown: His6, N-terminal, cleaved
In the case of B1, in data set [7], the binding result is recorded as “binds”.
